Consider 4 substances from patent US20150274802A1.

The target in assay [1] is type A insulin receptor (UniProt P06213). Kind of assay: cell-based or functional assay.
Assay [2] concerns the target type B insulin receptor (UniProt P06213). Kind of assay: cell-based or functional assay.
Assay [3] concerns the target type A insulin receptor (UniProt P06213). Kind of assay: competitive binding SPA, [125I]insulin.
For assay [4] the target is unchanged. Kind of assay: binding assay.

For “#31: IGF-2 analog B^2-C^2[K8]-A^2-D^2[R4] (from UniProt P01344 25-91) (ligand)”, the potency in assay [1] and in assay [2] was 2 fold throughout.
As to “#48: Cys^B1-Cys^B1 #2* dimer, B^1[C1H5Y16L17O22R29]29:A^1[O9,14,15N18,21] (ligand)”, the % receptor activity, phosphorylation assay in assay [1] turned out to be 102%. For the same substance, the % receptor activity (binding assay) in assay [3] worked out at 147%.
In turn, “Cys-Cys^B1 peptide (analog #2* with Cys^B1 disulfide-bonded to free cysteine) (ligand)” returned a % activity, phosphorylation assay in assay [1] of 23.1%. Moreover, the % activity (binding assay) in assay [3] turned out to be 55.4%.
Turning to “Insulin analog B^1[H5Y16L17O22R29]29:A^1[O9,14,15N18,21] (ligand)”, the % activity (binding assay) in assay [4] is 55%.
